Test results taken from patent US20250163183.

Biological target: LP3, LP9, LP11, and LP18

B1: human activated protein C (APC) (protein)
chain: ANSFLEELRHSSLERECIEEICDFEEAKEIFQNVDDTLAFWSKHVDGDQCLVLPLEHPCASLCCGHGTCIDGIGSFSCDCRSGWEGRFCQREVSFLNCSLDNGGCTHYCLEEVGWRRCSCAPGYKLGDDLLQCHPAVKFPCGRPWKRMEKKRSHLLIDGKMTRRGDSPWQVVLLDSKKKLACGAVLIHPSWVLTAAHCMDESKKLLVRLGEYDLRRWEKWELDLDIKEVFVHPNYSKSTTDNDIALLHLAQPATLSQTIVPICLPDSGLAERELNQAGQETLVTGWGYHSSREKEAKRNRTFVLNFIKIPVVPHNECSEVMSNMVSENMLCAGILGDRQDACEGDSGGPMVASFHGTWFLVGLVSWGEGCGLLHNYGVYTKVSRYLDWIHGHIRDKEAPQKSWAP
  APC-mediated SEAP-PAR1 cleavage at 0.7-6 nM nanobody: reduced PAR1 cleavage down to 73-82% of controls
